Key:
soluble human BLyS [1] = target: T1, soluble human BLyS (human, UniProt Q9Y275 134-285); test: cell-based or functional assay
soluble human BLyS [2] = target: T1, soluble human BLyS; test: DELFIA competition, Eu-hBLyS binding to coated BR3
Experimental: (§1) After 5× washing with 200 ul/well of DELFIA 1× wash solution (PE, Cat #4010-0010), plates were blocked with 3% BSA purified from trace heavy metal amounts (PE, Cat #CR84-100) for 3 hours with shaking at room temperature. Plates were washed again five times at 200 μl/well with DELFIA wash solution.
(§2) The final 3 wells across the plate served as controls (2 wells contained 2,000 pM mAbs for negative and background controls while the third contained no mAbs for positive control). […] After 18-24 hrs at 4° C., plates were read on PE EnVision plate reader with laser excitation, LANCE/DELFIA top mirror, and emission filter Eu-615 with a delay of 400 μs. Data were fit to four parameter (variable slope) inhibition dose response curve using GraphPad PRISM 5.0 software.

soluble mouse BLyS = target: T2, soluble mouse BLyS (mouse, UniProt Q9WU72 127-309); test: DELFIA competition, Eu-mBLyS binding to coated BR3
T2 construct: europium-labelled in DELFIA; also called mBLyS; mouse BAFF (BLyS)
Experimental: as §1, §2

IC50 hBLyS stimulated, mouse splenic B-cell proliferation (soluble human BLyS [1]): 4 ng/mL
IC50 (soluble human BLyS [2]): 0.0899 nM
IC50 (soluble mouse BLyS): > 2 nM
B1: tabalumab (antibody, V domains shown)
VH: QVQLQQWGAGLLKPSETLSLTCAVYGGSFSGYYWSWIRQPPGKGLEWIGEINHSGSTNYNPSLKSRVTISVDTSKNQFSLKLSSVTAADTAVYYCARGYYDILTGYYYYFDYWGQGTLVTVSS
VL: EIVLTQSPATLSLSPGERATLSCRASQSVSRYLAWYQQKPGQAPRLLIYDASNRATGIPARFSGSGSGTDSTLTISSLEPEDFAVYYCQQRSNWPRTFGQGTKVEIKR

— patent publication US20170101466A1 (published 2017)
